Results on 15 molecules are retold here after PMC5513711, “Noroviruses Co-opt the Function of Host Proteins VAPA and VAPB for Replication via a Phenylalanine–Phenylalanine-Acidic-Tract-Motif Mimic in Nonstructural Viral Protein NS1/2” (mBio, 2017).

One may read the stoichiometry N as a count of units in the complex or per binding partner.

The target of data set [1] is NS1/2^MNoV (strain not told; partner of the VAPA mutants in Fig. 4A and 4C). The data set can be described thus: mammalian 2-hybrid (M2H). The settings on record: for response: read off a plot.
Data set [2] concerns the molecule itself. Briefly: SEC + other: diffusion NMR; VAPA 8-226 in solution; dimer.
Data set [3] concerns the molecule itself. The data set can be described thus: not stated; VAPA 133-226 in solution; dimeric size, method not given.

Where two headings read alike, the source gives them in different places.

In the case of “VAPA (mammalian 2-hybrid construct) (from UniProt Q9WV55) K50A”, in data set [1] (n = 3), the other: Fold Change stood at 3.11. Further, in data set [1] (n = 3, parent: est. 170), the response stood at 69 %fluc/Rluc. In the same order, the values of “VAPA (mammalian 2-hybrid construct) (from UniProt Q9WV55) K94A” are 1.74 and 42 %fluc/Rluc. In the same order, the values of “VAPA (mammalian 2-hybrid construct) (from UniProt Q9WV55) K94E” are 1.2 and 38 %fluc/Rluc.

In the case of “VAPA (mammalian 2-hybrid construct) (from UniProt Q9WV55) R127A”, in data set [1] (n = 3), the other: Fold Change came out at 3.1. The response in data set [1] (n = 3, parent: est. 170) stood at 77 %fluc/Rluc.

In data set [1] (n = 3), “VAPA (mammalian 2-hybrid construct) (from UniProt Q9WV55) V61A” showed an other: Fold Change of 7.18. Moreover, in data set [1] (n = 3, parent: est. 170), the response is 190 %fluc/Rluc. For “VAPA (mammalian 2-hybrid construct) (from UniProt Q9WV55) V51A” the same measures were 1.66 and 32 %fluc/Rluc. For “VAPA (mammalian 2-hybrid construct) (from UniProt Q9WV55) R127E” the same measures were 2.53 and 40 %fluc/Rluc.

In turn, “VAPA (mammalian 2-hybrid construct) (from UniProt Q9WV55) N64A” returned an other: Fold Change in data set [1] (n = 3) of 3.82. Besides, in data set [1] (n = 3, parent: est. 170), the response amounted to 100 %fluc/Rluc. In data set [1] (n = 3), “VAPA (mammalian 2-hybrid construct) (from UniProt Q9WV55) K125A” yielded an other: Fold Change of 1.67. Moreover, the response in data set [1] (n = 3, parent: est. 170) worked out at 27 %fluc/Rluc.

As to “VAPA (mammalian 2-hybrid construct) (from UniProt Q9WV55) K50E; K52E”, the other: Fold Change in data set [1] was 1.29. In data set [1] (parent: est. 140), the response was 38 %fluc/Rluc. In the same order, the values of “VAPA (mammalian 2-hybrid construct) (from UniProt Q9WV55) K161E; H163E” are 2.43 and 80 %fluc/Rluc. In the same order, the values of “VAPA (mammalian 2-hybrid construct) (from UniProt Q9WV55) K94A; M96A” are 0.95 and 27 %fluc/Rluc. In data set [1] (n = 3), “VAPA (mammalian 2-hybrid construct) (from UniProt Q9WV55) K125E” showed an other: Fold Change of 1.47. Moreover, the response in data set [1] (n = 3, parent: est. 170) amounted to 27 %fluc/Rluc.

B1: VAPA MSP domain with linker and coiled-coil domain (8–226) (domain or fragment)
chain: MAKHEQILVLDPPSDLKFKGPFTDVVTTNLKLQNPSDRKVCFKVKTTAPRRYCVRPNSGIIDPGSIVTVSVMLQPFDYDPNEKSKHKFMVQTIFAPPNISDMEAVWKEAKPDELMDSKLRCVFEMPNENDKLNDMEPSKAVPLNASKQDGPLPKPHSVSLNDTETRKLMEECKRLQGEMMKLSEENRHLRDEGLRLRKVAHSDKPGSTSAVSFRDNVTS
notes: murine VAPA, MSP domain with linker and coiled-coil domain, residues 8-226; Natural abundance (unlabeled) in the titrations of 15N NS1; also called VAPA (M8–S226 of VAPA); unlabeled VAPA; source: E. coli, purified
Take B1: in data set [2], the “stoichiometry N” value was determined as 2.

B2: VAPA fragment (133–226), isolated coiled-coil domain (domain or fragment)
chain: PNENDKLNDMEPSKAVPLNASKQDGPLPKPHSVSLNDTETRKLMEECKRLQGEMMKLSEENRHLRDEGLRLRKVAHSDKPGSTSAVSFRDNVTS
notes: murine VAPA, linker and coiled-coil domain, residues 133-226; also called coiled-coil domain (P133–S226 of VAPA); CCD; source: E. coli, purified
Take B2: the “stoichiometry N” value in data set [3] came to 2.
